# Measured values as given in PMC4019695.
# Legend:
# [1] = target: Drosophila 80S ribosome (Drosophila (endogenous in fly embryos)) (UniProt P46222); assay: FRET or BRET
# [2] = target: Drosophila 80S ribosome (Drosophila (endogenous in fly embryos)) (UniProt P46222); assay: SEC
Substance,Kd [1],fold reduction of binding against NT-dFMRP [2]
"NT-dFMRP ΔRGG mutant, residues 220-413 (from UniProt Q9NFU0 220-413) (domain or fragment)",> 2000 nM,
NT-dFMRP KH2 (I307N) mutant (from UniProt Q9NFU0 220-681) (domain or fragment),61 nM,
NT-dFMRP KH1 (I244N) mutant (from UniProt Q9NFU0 220-681) (domain or fragment),130 nM,2 fold
